Measurements: patent US20080317723A1, “LYMPHATIC ENDOTHELIAL CELLS MATERIALS AND METHODS” (VEGENICS LIMITED, priority 2001, published 2008)

Molecular target: T1, hVEGFR-3 (Homo sapiens, UniProt P35916)
T1 construct: Ig (immunoglobulin fusion partner); made in house
T1 sequence (P35916 25-775 limits assumed): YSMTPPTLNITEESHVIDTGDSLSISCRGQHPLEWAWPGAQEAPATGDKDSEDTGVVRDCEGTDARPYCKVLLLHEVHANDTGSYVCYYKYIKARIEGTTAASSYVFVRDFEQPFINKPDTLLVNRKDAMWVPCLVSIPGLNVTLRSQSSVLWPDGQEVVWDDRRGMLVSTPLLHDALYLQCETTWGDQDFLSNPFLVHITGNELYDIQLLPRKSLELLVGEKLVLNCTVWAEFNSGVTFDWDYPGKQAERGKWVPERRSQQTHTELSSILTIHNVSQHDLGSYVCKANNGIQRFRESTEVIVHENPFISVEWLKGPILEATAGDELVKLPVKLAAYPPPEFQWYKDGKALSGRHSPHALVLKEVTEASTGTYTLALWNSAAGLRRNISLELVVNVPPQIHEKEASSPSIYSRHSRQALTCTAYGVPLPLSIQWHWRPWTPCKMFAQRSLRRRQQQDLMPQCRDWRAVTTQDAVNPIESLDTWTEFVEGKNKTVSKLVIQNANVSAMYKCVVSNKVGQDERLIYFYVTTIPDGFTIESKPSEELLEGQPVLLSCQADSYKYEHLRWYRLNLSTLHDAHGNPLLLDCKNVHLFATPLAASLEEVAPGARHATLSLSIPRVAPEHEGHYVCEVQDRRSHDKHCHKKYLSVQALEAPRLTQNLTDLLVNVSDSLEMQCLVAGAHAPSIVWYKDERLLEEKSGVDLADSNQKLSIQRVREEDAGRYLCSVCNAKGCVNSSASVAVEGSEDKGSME
Assay: Biosensor (BIAcore) analysis of ligand binding to immobilized VEGFR-3
Conditions: hVEGFR-3 bivalent immunoglobulin fusion protein immobilized; global fitting, 1:1 Langmuirian model with mass transfer
Experimental: Biosensor Analysis. All preparations were analysed for homogeneity and buffer exchanged by micropreparative size exclusion HPLC using a Superose 12 (3.2/30) column installed in a SMART system (Amersham Pharmacia Biotech, Uppsala, Sweden) immediately prior to use (Nice and Catimel, Bioessays, 21:339-352, 1999). The concentrations of VEGF-C and VEGF-D were determined by absorbance at 280 nm using E280 1% 1 cm of 0-65. Receptor domains were coupled to the carboxymethylated dextran layer of a CM5 sensor chip using standard amine coupling chemistry (Nice and Catimel, Bioessays, 21:339-352, 1999) for analysis of ligad binding using a BIAcore 2000 optical biosensor (BIAcore, Uppsala, Sweden). The levels immobilized were 3,000 RU and 7,000 RU for VEGFR-2 and VEGFR-3, respectively. […] The apparent binding affinities of VEGF-C and VEGF-C156S to receptor domains were determined by analysis of the initial dissociation phase to obtain the kd, which was then used to constrain a global analysis of the association region of the curves, assuming a 1:1 Langmuirian model. Data were analysed using BLAevaluation 3.0 (BIAcore, Uppsala, Sweden) as described previously (Catimel et al., J. Chromatogr., 776:15-30, 1997). […]

Ka: 3500 M⁻¹ s⁻¹
B1: VEGF-C156S: VEGFR-3 specific mutant form of VEGF-C, cysteine 156 changed into serine; recombinant human (Thr103 to Ile225) (protein, UniProt P49767 103-225, looked up, variant C156S)
chain: TEETIKFAAAHYNTEILKSIDNEWRKTQCMPREVCIDVGKEFGVATNTFFKPPSVSVYRCGGCCNSEGLQCMNTSTSYLSKTLFEITVPLSQGPKPVTISFANHTSCRCMSKLDVYRQVHSII
